Changes are numbered by the printed parent chain.

To fix the notation:
B1: cr832 (nucleic acid)
guide: GTTTAAGAGCTAAGCTGGAAACAGCATAGCAAGTTTAAATAAGGCTAGTCCGTTATCAGCTTGAAAAAGCGGTGCCGAGTCGGCACT
modifications: listed as DNA, chemistry not fully specified
B2: cr854 (nucleic acid)
guide: B1 guide with G59A, C70T, T73C, G74A, C75G, C76G, G82C, G83C, C84T, A85G
modifications: listed as DNA, chemistry not fully specified
B3: cr605 (nucleic acid)
guide: B1 guide with C45A, G48T, G59A, C70T, T73C, G74A, G77C, C81G, C84T, A85G
modifications: listed as DNA, chemistry not fully specified
B4: cr090 (nucleic acid)
guide: B1 guide with A5T, G7T, G59A, C70T, T73C, G74A, C84T, A85G
modifications: listed as DNA, chemistry not fully specified
B5: cr452 (nucleic acid)
guide: B1 guide with G33A, C57A, G59A, C70T, T73C, G74A, C84T, A85G
modifications: listed as DNA, chemistry not fully specified
B6: cr011 (nucleic acid)
guide: B1 guide with T4C, G59A, C70T, T73C, G74A, C84T, A85G
modifications: listed as DNA, chemistry not fully specified
B7: cr732 (nucleic acid)
guide: B1 guide with A42G, T53G, G59A, C70T, G71C, T73C, G74A, C84T, A85G
modifications: listed as DNA, chemistry not fully specified
B8: cr218 (nucleic acid)
guide: B1 guide with G33T, G59A, G63A, A66C, C70T, T73C, G74A, C84T, A85G
modifications: listed as DNA, chemistry not fully specified
B9: cr294 (nucleic acid)
guide: B1 guide with G44A, C45A, G48T, C50T, G59A, C70T, T73C, G74A, C84T, A85G
modifications: listed as DNA, chemistry not fully specified
B10: cr373 (nucleic acid)
guide: B1 guide with T34C, G59A, C70T, T73C, G74A, C75G, G83C, C84T, A85G
modifications: listed as DNA, chemistry not fully specified
B11: cr900 (nucleic acid)
guide: B1 guide with T36G, G59A, C70T, T73C, G74A, C84T, A85G
modifications: listed as DNA, chemistry not fully specified
B12: cr429 (nucleic acid)
guide: GTTTAAGAGCTAAGCTGGAAACAGCATAGCAAGTTTAAATAAGAATATTTCGTTATCAACTTGAAAAAGTGGCAACGAGTCGTTGCT
modifications: listed as DNA, chemistry not fully specified
B13: cr180 (nucleic acid)
guide: B12 guide with A41C, A44G, A45C, T48G, T50C, A75C, T80C, T83G
modifications: listed as DNA, chemistry not fully specified
B14: cr760 (nucleic acid)
guide: B12 guide with A32G, A41C, A44G, A45C, T48G, T50C, A65T, A75C, T83G
modifications: listed as DNA, chemistry not fully specified
B15: cr347 (nucleic acid)
guide: B12 guide with T34C, A44C, A45C, T48G, T50G, A75C, T83G
modifications: listed as DNA, chemistry not fully specified
B16: cr311 (nucleic acid)
guide: B12 guide with A44G, A45C, A47T, T48G, T50C, C57A, A58T, A75C, T83G
modifications: listed as DNA, chemistry not fully specified

The test system of one data set is K562 CRISPRi cells. Put plainly: Constant region variant library pooled growth screen, K562. Type of data set: cell-based, human. Conditions: sgRNA constant region variants; activity relative to the original, un-modified constant region cr995. Summed up: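 Growth screens in K562 CRISPRi cells were harvested 4-8 days post-selection at >2000× library coverage. Each variant's phenotype was referenced to the unmodified constant region with the same targeting sequence.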
B1 displayed a Mean relative activity of 1.039.

Still in this data set, the particulars now being: sgRNA constant region variants; activity relative to the unmodified constant region cr995.
Consider B2, for which the Mean relative activity was 0.2099.

Molecule B3 had a Mean relative activity of 0.1839.

Turning to B4, the Mean relative activity is recorded as 0.1865.

Consider B5, for which the Mean relative activity was 0.1813.

As for B6, the Mean relative activity is reported as 0.2088.

The molecule B7 showed a Mean relative activity of 0.1926.

B8 gave a Mean relative activity of 0.207.

In the case of B9, the Mean relative activity turned out to be 0.1883.

For the molecule B10, the Mean relative activity was 0.1993.

Take B11: the Mean relative activity was 0.1846.

B12 had a Mean relative activity of 0.196.

In turn, B13 had a Mean relative activity of 0.208.

Take B14: the Mean relative activity stood at 0.1909.

Consider B15, for which the Mean relative activity is on record as 0.1915.

Molecule B16 came in with a Mean relative activity of 0.179.
